Consider one molecule from article doi:10.1101/2020.12.20.423689 (bioRxiv, 2020).

The target in this experiment is mitoribosomal protein uL12m (human, UniProt P52815 37-198). Briefly: cryo-EM structure.

B1: human mitochondrial elongation factor G2 (EF-G2mt) (natural protein)
chain: MLTNLRIFAMSHQTIPSVYINNICCYKIRASLKRLKPHVPLGRNCSSLPGLIGNDIKSLHSIINPPIAKIRNIGIMAHIDAGKTTTTERILYYSGYTRSLGDVDDGDTVTDFMAQERERGITIQSAAVTFDWKGYRVNLIDTPGHVDFTLEVERCLRVLDGAVAVFDASAGVEAQTLTVWRQADKHNIPRICFLNKMDKTGASFKYAVESIREKLKAKPLLLQLPIGEAKTFKGVVDVVMKEKLLWNCNSNDGKDFERKPLLEMNDPELLKETTEARNALIEQVADLDDEFADLVLEEFSENFDLLPAEKLQTAIHRVTLAQTAVPVLCGSALKNKGIQPLLDAVTMYLPSPEERNYEFLQWYKDDLCALAFKVLHDKQRGPLVFMRIYSGTIKPQLAIHNINGNCTERISRLLLPFADQHVEIPSLTAGNIALTVGLKHTATGDTIVSSKSSALAAARRAEREGEKKHRQNNEAERLLLAGVEIPEPVFFCTIEPPSLSKQPDLEHALKCLQREDPSLKVRLDPDSGQTVLCGMGELHIEIIHDRIKREYGLETYLGPLQVAYRETILNSVRATDTLDRTLGDKRHLVTVEVEARPIETSSVMPVIEFEYAESINEGLLKVSQEAIENGIHSACLQGPLLGSPIQDVAITLHSLTIHPGTSTTMISACVSRCVQKALKKADKQVLEPLMNLEVTVARDYLSPVLADLAQRRGNIQEIQTRQDNKVVIGFVPLAEIMGYSTVLRTLTSGSATFALELSTYQAMNPQDQNTLLNRRSGLT
On to B1, for which the binding result is “binds”.
